Test in all cases: microscale thermophoresis
A general note: In MST a laser heats a spot of the sample, and binding alters the fluorescence response.

Test [1] addresses T1, CaV2.2 AID peptide AID (UniProt Q00975).
T1 chain: QQIERELNGYLEWIFKAE

Test [2] addresses T2, CaV2.2 AID peptide AID (UniProt Q00975, IPPQ present).
T2 chain: QQIERELNGYLEWIFKAE

For test [3], the target named is T3, CaV2.1 AID peptide AID (UniProt O00555, IPPQ present).
T3 chain: QQIERELNGYMEWISKAE

For test [4], the target named is T4, CaV2.1 AID peptide AID (UniProt O00555).
T4 chain: QQIERELNGYMEWISKAE

The target of test [5] is T5, CaV1.1 AID peptide AID (UniProt Q13698, IPPQ present).
T5 chain: QQLDEDLRGYMSWITQGE

The target of test [6] is T6, CaV1.1 AID peptide AID (UniProt Q13698).
T6 chain: QQLDEDLRGYMSWITQGE

B1: CaVβ2 (protein)
chain: not shown
As for B1, the Kd with CaV2.2 AID peptide AID [1] is 0.012 µM; with CaV2.2 AID peptide AID [2] it was 0.208 µM; with CaV2.1 AID peptide AID [3], 0.093 µM; with CaV2.1 AID peptide AID [4] it was 0.0183 µM; with CaV1.1 AID peptide AID [5], 0.051 µM; with CaV1.1 AID peptide AID [6] it was 0.024 µM.

The term Kd denotes a measure of binding affinity in units of concentration.

The values above are taken from publication PMC8998802 (2019).
